In the supplement of paper PMC7877785:
± gives the uncertainty stated by the source.

Assay: self-splicing fitness, log relative to wild type (ln ratio); higher = more splicing; Tetrahymena group I intron in knt gene, E. coli kanamycin selection, DiMSum; sequences stand for … in CUCUCU…GGAGGGAAAAGUUAUCAGGCAUGCACCUGGUAGCUAGUCUUUAAACCAAUAGAUUGCAUCGGUUUAAAAGGCAAGACCGUCAAAUUGCGGGAAAGGGGUCAACAGCCGUUCAGUACCAAGUCUCAGGGGAAACUUUGAGAUGGCCUUGCAAAGGGUAUGGUAAUAAGCUGACGGACAUGGUCCUAACCACGCAGCCAAGUCCUAAGUCAACAGAUCUUCUGUUGAUAUGGAUGCAGUUCACAGACUAAAUGUCGGUCGGGGAAGAUGUAUUCUUCUCAUAAGAUAUAGUCGGACCUCUCCUUAAUGGGAGCUAGCGGAUGAAGUGAUGCAACACUGGAGCCGCUGGGAACUAAUUUGUAUGCGAAAGUAUAUUGAUUAGUUUUGGAGUACUCGUGGUCG
Procedure, shortened: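 The eight P1ex-region nucleotides of an intron in the knt kanamycin-resistance gene on pET-22b(+) were all randomised and the library put into E. coli BL21(DE3). Six replicate transformations were grown overnight at 37°C or 30°C on LB agar with or without 25 μg/mL kanamycin, together with 100 μg/mL carbenicillin, 50 μM IPTG and 0.2% rhamnose. Colonies were pooled and amplicon-sequenced on an Illumina HiSeq 2500. Fitness from DiMSum is the error-weighted combination of wild-type-normalised replicate fold changes, kanamycin over none.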

CUCGAGCAAUAUUACGAGCA
self-splicing fitness (ln) (30 °C): -4.04 ± 0.42 | self-splicing fitness (ln) (37 °C): -2.09 ± 0.27

CUCGAGCAAUAUUACGAGGU
self-splicing fitness (ln) (30 °C): -3.53 ± 0.24 | self-splicing fitness (ln) (37 °C): -2.58 ± 0.21

CUCGAGCAAUAUUACGAGUU
self-splicing fitness (ln) (37 °C): -2.42 ± 0.24

CUCGAGCAAUAUUACGAUUA
self-splicing fitness (ln) (30 °C): -3.13 ± 0.3 | self-splicing fitness (ln) (37 °C): -2.56 ± 0.26

CUCGAGCAAUAUUACGCCGA
self-splicing fitness (ln) (30 °C): -1.32 ± 0.19 | self-splicing fitness (ln) (37 °C): -2.42 ± 0.24

CUCGAGCAAUAUUACGCUAA
self-splicing fitness (ln) (37 °C): -2.34 ± 0.36

CUCGAGCAAUAUUACGCUUC
self-splicing fitness (ln) (30 °C): -3.71 ± 0.3 | self-splicing fitness (ln) (37 °C): -2.24 ± 0.29

CUCGAGCAAUAUUACGGCCA
self-splicing fitness (ln) (30 °C): -2.34 ± 0.24 | self-splicing fitness (ln) (37 °C): -3.47 ± 0.35

CUCGAGCAAUAUUACGGGGU
self-splicing fitness (ln) (30 °C): -3.46 ± 0.18 | self-splicing fitness (ln) (37 °C): -2.54 ± 0.22

CUCGAGCAAUAUUACGGUAG
self-splicing fitness (ln) (30 °C): -2.62 ± 0.16 | self-splicing fitness (ln) (37 °C): -0.386 ± 0.12

CUCGAGCAAUAUUACGUAUA
self-splicing fitness (ln) (37 °C): -2.29 ± 0.31

CUCUAGCAAUAUUACGACGC
self-splicing fitness (ln) (37 °C): -1.31 ± 0.35

CUCUAGCAAUAUUACGACUU
self-splicing fitness (ln) (37 °C): -3.23 ± 0.31

CUCUAGCAAUAUUACGCGCU
self-splicing fitness (ln) (30 °C): -2.55 ± 0.3 | self-splicing fitness (ln) (37 °C): -3.61 ± 0.27

CUCUAGCAAUAUUACGCUAG
self-splicing fitness (ln) (30 °C): -3.15 ± 0.25 | self-splicing fitness (ln) (37 °C): -1.85 ± 0.28

CUCUAGCAAUAUUACGGACU
self-splicing fitness (ln) (37 °C): -4.16 ± 0.39

CUCUAGCAAUAUUACGGAGC
self-splicing fitness (ln) (30 °C): -3.72 ± 0.27 | self-splicing fitness (ln) (37 °C): -3.48 ± 0.26

CUCUAGCAAUAUUACGGCAG
self-splicing fitness (ln) (30 °C): -2.41 ± 0.28 | self-splicing fitness (ln) (37 °C): -2.72 ± 0.44

CUCUAGCAAUAUUACGGGCA
self-splicing fitness (ln) (30 °C): -2.62 ± 0.23 | self-splicing fitness (ln) (37 °C): -2.29 ± 0.23

CUCUAGCAAUAUUACGGGCG
self-splicing fitness (ln) (30 °C): -2.25 ± 0.17 | self-splicing fitness (ln) (37 °C): -2.36 ± 0.19

CUCUAGCAAUAUUACGUACA
self-splicing fitness (ln) (30 °C): -3.04 ± 0.38 | self-splicing fitness (ln) (37 °C): -1.89 ± 0.24

CUCUAGCAAUAUUACGUAUG
self-splicing fitness (ln) (30 °C): -3.02 ± 0.21 | self-splicing fitness (ln) (37 °C): -1.61 ± 0.15

CUCUAGCAAUAUUACGUCAG
self-splicing fitness (ln) (30 °C): -2.85 ± 0.23 | self-splicing fitness (ln) (37 °C): -2.34 ± 0.32

CUCUAGCAAUAUUACGUCCG
self-splicing fitness (ln) (30 °C): -2.91 ± 0.18 | self-splicing fitness (ln) (37 °C): -0.955 ± 0.14

CUCUAGCAAUAUUACGUCCU
self-splicing fitness (ln) (30 °C): -2.87 ± 0.39

CUCUAGCAAUAUUACGUGAG
self-splicing fitness (ln) (30 °C): -3.45 ± 0.18 | self-splicing fitness (ln) (37 °C): -2.12 ± 0.19

CUCUAGCAAUAUUACGUGUU
self-splicing fitness (ln) (30 °C): -3.44 ± 0.15 | self-splicing fitness (ln) (37 °C): -2.39 ± 0.12

CUCUAGCAAUAUUACGUUCG
self-splicing fitness (ln) (30 °C): -3.54 ± 0.19 | self-splicing fitness (ln) (37 °C): -2.33 ± 0.18

CUCUAGCAAUAUUACGUUGG
self-splicing fitness (ln) (30 °C): -3.9 ± 0.22 | self-splicing fitness (ln) (37 °C): -2.92 ± 0.23

CUCUAGCAAUAUUACGUUUG
self-splicing fitness (ln) (30 °C): -3.43 ± 0.13 | self-splicing fitness (ln) (37 °C): -2.27 ± 0.14

CUGAAGCAAUAUUACGAAUG
self-splicing fitness (ln) (30 °C): -0.544 ± 0.083 | self-splicing fitness (ln) (37 °C): 0.252 ± 0.12

CUGAAGCAAUAUUACGACCU
self-splicing fitness (ln) (30 °C): -3.63 ± 0.4 | self-splicing fitness (ln) (37 °C): -3.1 ± 0.18

CUGAAGCAAUAUUACGAGCU
self-splicing fitness (ln) (30 °C): -3.42 ± 0.21 | self-splicing fitness (ln) (37 °C): -2.84 ± 0.27

CUGAAGCAAUAUUACGAGGC
self-splicing fitness (ln) (30 °C): -3.15 ± 0.17 | self-splicing fitness (ln) (37 °C): -1.69 ± 0.16

CUGAAGCAAUAUUACGAUUU
self-splicing fitness (ln) (30 °C): -3.34 ± 0.2 | self-splicing fitness (ln) (37 °C): -1.6 ± 0.24
